Patent publication US20230137491A1, “PEPTIDES AND USES THEREOF” (SINTICA BIOTECH SOCIETÀ A RESPONSABILITÀ LIMITATA …, priority 2020, published 2023)
Non-standard residues stand in square brackets, D forms with d. methoxy‑PEG 20 kDa = linear 20 kDa methoxy-PEG conjugated through D-Cys sulfur

Experiments:
CD271 = molecular target: T1, CD271 (Homo sapiens, UniProt P08138); test: Immunoprecipitation of melanoma cell lysates with the peptide, blotted against CD271; assay type: binding; conditions: protein extracts of WM266-4 and 1205Lu melanoma cell lines
T1 construct: total protein lysates of WM266-4 and Lu1205 melanoma cell lines were immunoprecipitated with the peptide conjugated to sepharose beads; endogenous in cells; host or cells: WM266-4 and 1205Lu melanoma cell lines (ATCC)
T1 sequence (P08138 29-427): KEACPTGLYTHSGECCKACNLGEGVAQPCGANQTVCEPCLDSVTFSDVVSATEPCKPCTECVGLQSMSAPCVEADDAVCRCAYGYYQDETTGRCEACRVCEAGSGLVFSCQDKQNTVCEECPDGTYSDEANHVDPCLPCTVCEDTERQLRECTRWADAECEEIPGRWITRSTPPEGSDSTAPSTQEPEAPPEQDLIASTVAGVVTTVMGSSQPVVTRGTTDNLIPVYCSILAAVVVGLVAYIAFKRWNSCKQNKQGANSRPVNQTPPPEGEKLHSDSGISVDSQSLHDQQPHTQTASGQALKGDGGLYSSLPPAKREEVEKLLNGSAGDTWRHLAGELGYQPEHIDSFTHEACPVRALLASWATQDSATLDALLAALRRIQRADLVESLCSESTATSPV
Protocol: FIG. 1. […] Protein extracts from two melanoma cell lines were immunoprecipitated with the Pegylated form of the peptide (XYZ) and blotted against CD271. The sepharose beads-protein lysates (without CD271) is used as negative control, while no-immunoprecipitated protein lysate from WM266-4 is used as positive control.
1205Lu and WM266-4 melanoma cell lines were treated with or without XYZ. 24 h later cells were harvested with RIPA buffer (10 mM Tris, pH 8.0; 150 mM NaCl; 1% Nonidet P-40, 0.5% deoxycholate; 0.1% SDS) containing protease inhibitors. Nuclei were removed by centrifugation (11,000 rpm for 3 min). Monoclonal antibody anti-p75NTR (Upstate) was bound to sepharose beads lh at 4° C. under rotation. Then, pre-cleared lysates were conjugated to sepharose beads-antibody complex or to sepharose beads alone as negative control, overnight at 4° C. under rotation. Immunocomplexes were washed with Port Buffer (10 mM Tris-HCl, pH 8.5; 150 mM NaCl; 0.1% Renex 30; 0.01% BSA; 2.5% NaN3) six times and with PT Buffer (10 mM Tris-HCl, pH 8.5; 150 mM NaCl; 0.5% Tween 20; 2.5% NaN3) three times. Samples were eluted with 1× Laemnli sample buffer for […] at 90° C. and Western Blotting for p75NTR was performed.
Immunocomplexes were washed with Port Buffer and with PT Buffer, then eluted with Laemnli sample buffer for 5′ at 90° C. […]

CD1 mice = test: Acute toxicity testing (up and down procedure); assay type: in vivo; conditions: six CD1 mice, intravenous, 17.5 mg/kg to 1750 mg/kg, up to six days
Protocol: FIG. 10. No toxic effects in 6 mice treated with XYZ. Acute toxicity testing was performed in CD1 mice with different doses of XYZ up to six days after treatment. After one day of fasting, six mice were injected intravenously (28 G needle) through the tail vein with a total dose of 17.5, 175, 550 or 1750 mg/kg/mouse of XYZ in a physiological solution. 50 gr of food were available two hours later. The health status (coat and appearance) of mice was observed from the first day after treatment. (a) Mice were weighed prior to XYZ injection and then every day until the sixth day. The amount of ingested food (b) and drinking water (c) were measured.
Intravenous injections were performed in six CD1 mice (Charles River, Calco (MI) Italy) tails for administration from 17.5 mg/kg to 1750 mg/kg XYZ (FIG. 10).

[1] = test system: WM266-4 melanoma cell line; test: Annexin V staining by flow cytometry; assay type: cell-based, human; conditions: WM266-4, 24 h and 48 h, versus diluent
Protocol: (§1) FIG. 5. […] WM266-4 melanoma cell line was cultured and the rate of apoptosis measured after treatment with the peptide (XYZ) as compared to diluent at different time points by flow cytometry (A) counting % of cells in sub-G1 with propidium iodide staining or (B) counting % of Annexin positive cells staining. Student's t-test was used for comparison of the means
WM266-4 cell line was treated with the peptide (XYZ) or diluent at different time points. After 24 and 48 h, cells were trypsinised, collected by centrifugation and resuspended in 500 μL of binding buffer containing annexin V-FITC and propidium iodide (PI). After incubation at room temperature for 5 min in the dark, annexin V-FITC binding was analyzed by flow cytometry using FITC signal detector and PI staining by the phycoerythrin emission signal detector.
(§2) In particular, XYZ triggers melanoma apoptosis, a most well-known type of programmed cell death in culture. […] In details, melanoma cell lines, gently were trypsinised and washed once with serum-containing media before incubation with annexin V-FITC or with propidium iodide. 24 h and 48 h later, FITC signal detector or sub G0/G1 peak for annexin or PI staining respectively, were observed by flow cytometry.

[2] = test system: WM266-4 melanoma cell line; test: Cell death analysis by flow cytometry (propidium iodide, sub-G1); assay type: cell-based, human; conditions: WM266-4, 24 h and 48 h, versus diluent
Protocol: as §1
WM266-4 cell line was treated with the peptide (XYZ) or diluent at different time points. After 24 and 48 h, cells were trypsinised and resuspended in hypotonic fluorochrome solution: 50 μg/ml propidium iodide containing 0.1% sodium citrate and 0.5% Triton X-100 (Sigma Aldrich, Milano, Italy). After 15 min, cells were analyzed using an Epics XL flow cytometer (Coulter Electronics Inc., Hialeah, Fla., USA). Apoptosis was detected by evaluating the reduced fluorescence of the DNA-binding dye PI in the apoptotic nuclei.
as §2

Substance: Ac-DMet-DLeu-Gly-DIle-DIle-DAla-Gly-DLys-DAsn-DSer-Gly-DCys-NH2 with a linear 20 kDa methoxy-PEG polymer conjugated to the D-Cys residue through the sulfur atom of the latter (Ac-[dM][dL]G[dI][dI][dA]G[dK][dN][dS]G[dC](methoxy‑PEG 20 kDa)-NH2) [XYZ]
- binding to CD271 (immunoprecipitation, blot against CD271) (CD271): immunoprecipitate with CD271
- acute toxic effect (appearance, weight, water and food intake) (CD1 mice): did not show any acute toxic effect
- rate of apoptosis (Annexin staining) [1]: significantly higher rate of apoptosis than diluent alone
- rate of apoptosis (propidium iodide, subG1 analysis) [2]: significantly higher rate of apoptosis than diluent alone
